# Starred links: 1 amine or outer side, 2 acyl side, 3 side chain; linkers in the order of their positions; H or OH if unused. Positions of bridges follow the written chain, without caps; N, C: chain ends. Non-standard residues stand in square brackets, D forms with d. Groups on a side chain read outwards from the residue. Primed or numbered codes have the meaning given here. No end group written: not given here. *: point of attachment. PEG8′ = PEG8 unit (23-azido-3,6,9,12,15,18,21-heptaoxatricosyl, i.e. an eight-unit PEG spacer) linking the triazole to vitamin E succinate; Pra′ = propargylglycine (built in as LPH), clicked to a 1-substituted triazol-4-yl-alanine, O=C([C@H](Cc1cn([*:3])nn1)N[*:1])[*:2]; X1 = (S)‑3‑carboxy‑3‑(15-carboxypentadecanoylamino)propyl, O=C(O)CCCCCCCCCCCCCCC(=O)N[C@@H](CC*)C(=O)O; Pra″ = its azide, alkyne or alkene has reacted where a group follows in round brackets; X2 = (S)‑3‑carboxy‑3‑palmitamidopropyl, CCCCCCCCCCCCCCCC(=O)N[C@@H](CC*)C(=O)O; Phe(4-OMe)″ = p-methoxyphenylalanine, COc1ccc(C[C@H](N[*:1])C(=O)[*:2])cc1; Pra(3) = propargylglycine, clicked to an azide to give a triazolyl-alanine; triazole = 1,2,3-triazole formed by click of the Pra alkyne with the azide; Trp(1-CH2CO) = O=C([C@H](Cc1cn(CC(=O)[*:3])c2ccccc12)N[*:1])[*:2]; Tyr(Me) = O-methyl-tyrosine, COc1ccc(C[C@H](N[*:1])C(=O)[*:2])cc1; C18 diacid = O=C(O)CCCCCCCCCCCCCCCCC(=O)*; Phe(4-F) = N[C@@H](Cc1ccc(F)cc1)C(=O)O; γGlu = O=C(O)[C@H](CCC(=O)[*:2])N[*:1]; Hyp = O=C(O)[C@@H]1C[C@@H](O)CN1; NMeF = CN[C@@H](Cc1ccccc1)C(=O)O; F3Phe = trifluoro-phenylalanine; dHyp = O=C(O)[C@H]1C[C@H](O)CN1; NMeNle = CCCC[C@H](NC)C(=O)O; Suc = O=C(CCC(=O)[*:2])[*:1]; triazole″ = not defined here; Pip = O=C(O)[C@@H]1CCCCN1; NMeA = CN[C@@H](C)C(=O)O; Pra = C#CC[C@H](N)C(=O)O; Dab = NCC[C@H](N)C(=O)O; Dap = NC[C@H](N)C(=O)O
# Molecular target: T1, Recombinant Human PD-L1-TVMV-His (human, UniProt Q9NZQ7 19-239)
# T1 construct: expressed in HEK293T cells; also called PD-L1-His; hPD-L1(19-239)-TVMV-His
# T1 sequence (Q9NZQ7 other isoform, or with tags, fused parts or gaps limits assumed): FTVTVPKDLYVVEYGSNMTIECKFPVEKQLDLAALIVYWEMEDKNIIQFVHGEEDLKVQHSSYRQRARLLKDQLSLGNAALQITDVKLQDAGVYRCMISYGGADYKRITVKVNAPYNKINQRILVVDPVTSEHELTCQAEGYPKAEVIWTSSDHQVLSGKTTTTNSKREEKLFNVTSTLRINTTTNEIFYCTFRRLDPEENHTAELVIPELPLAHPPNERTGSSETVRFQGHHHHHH
# Assay: HTRF vs PD-1-Ig; B = IC50 0.01-0.099 µM
# Protocol: Homogenous Time-Resolved Fluorescence (HTRF) Assays of Binding of Soluble PD-1 to Soluble PD-L1. Soluble PD-1 and soluble PD-L1 refers to proteins with carboxyl-end truncations that remove the transmembrane-spanning regions and are fused to heterologous sequences, specifically the Fc portion of the human immunoglobuling G sequence (Ig) or the hexahistidine epitope tag (His). All binding studies were performed in an HTRF assay buffer consisting of dPBS supplemented with 0.1% (w/v) bovine serum albumin and 0.05% (v/v) Tween-20. For the PD-1-Ig/PD-L1-His binding assay, inhibitors were pre-incubated with PD-L1-His (10 nM final) for 15 m in 4 μl of assay buffer, followed by addition of PD-1-Ig (20 nM final) in 1 μl of assay buffer and further incubation for 15 m. PD-L1 fusion proteins from either human, cynomologous macaques, mouse, or other species were used. HTRF detection was achieved using europium crypate-labeled anti-Ig monoclonal antibody (1 nM final) and allophycocyanin (APC) labeled anti-His monoclonal antibody (20 nM final). Antibodies were diluted in HTRF detection buffer and 5 μl was dispensed on top of binding reaction. The reaction was allowed to equilibrate for 30 minutes and signal (665 nm/620 nm ratio) was obtained using an EnVision fluorometer. Additional binding assays were established between PD-I-Ig/PD-L2-His (20 and 5 nM, respectively), CD80-His/PD-L1-Ig (100 and 10 nM, respectively) and CD80-His/CTLA4-Ig (10 and 5 nM, respectively). Binding/competition studies between biotinylated Compound No. 71 and human PD-L1-His were performed as follows. Macrocyclic peptide inhibitors were pre-incubated with PD-L1-His (10 nM final) for 60 minutes in 4 μl of assay buffer followed by addition of biotinylated Compound No. 71 (0.5 nM final) in 1 μl of assay buffer. Binding was allowed to equilibrate for 30 minutes followed by addition of europium crypated labeled Streptavidin (2.5 pM final) and APC-labeled anti-His (20 nM final) in 5 μl of HTRF buffer. The reaction was allowed to equilibrate for 30 m and signal (665 nm/620 nm ratio) was obtained using an EnVision fluorometer.
row,Binder,IC50 [µM]
1,{CH2CO}-Y[NMeA]DPHK[Hyp]WKW[NMeNle][NMeNle]ECG[Pra(3)]([triazole″-X2])D (thioether N-14; reading uncertain) [Example 14061],0.01 to 0.099
2,"{CH2CO}-Y[NMeA]NP[Dap]L[Hyp]WS[Trp(1-CH2CO)][NMeNle][NMeNle]LCG[Pra] (thioether N-14, also called Intermediate 1300X) [INT-1300X]",0.01 to 0.099
3,"{CH2CO}-Y[NMeA]NP[Dap]L[Hyp]WS[Trp(1-CH2CO)][NMeNle][NMeNle]ECG[Pra] (thioether N-14; not fully specified (C-terminus); printed as ClAc-Tyr-mAla-Asn-Pro-Dap-Leu-Hyp-Trp-Ser-Trp(1-carboxymethyl)-mNle-mNle-E-Cys-Gly-[(S)-propargylglycine], cyclised ClAc-Cys, also called Intermediate 1400I) [INT-1400I]",0.01 to 0.099
4,YADPHKPWKWXXECGX (as m102 (INT 1300Y); Pra triazole-linked to vitamin E succinate 5-azidopentylamide) [Example 14085],0.01 to 0.099
5,YADPHKPWKWXXECGX (as m115 (INT 1400J); Pra triazole-linked to vitamin E succinate 5-azidopentylamide) [Example 14082],0.01 to 0.099
6,"{CH2CO}-F[Pip]DP[Dap]L[Hyp]W[Dab]W[NMeNle][NMeNle]LCGD (thioether N-14; not fully specified (residues 1, 10, 16, C-terminus); also: residue 1 written Tyr(4-F)) [Example 14124]",0.01 to 0.099
7,{CH2CO}-Y[NMeA]NP[Dap]L[Hyp]W[Dab][Trp(1-CH2CO)][NMeNle][NMeNle]LCG[Pra]-OH (thioether N-14; SMILES C#CC[C@H](NC(=O)CNC(=O)[C@@H]1CSCC(=O)N[C@@H](Cc2ccc(O)cc2)C(=O)N(C)[C@@H](C)C(=O)N[C@@H](CC(N)=O)C(=O)N2CCC[C@H]2C(=O)N[C@@H](CN)C(=O)N[C@@H](CC(C)C)C(=O)N2C[C@H](O)C[C@H]2C(=O)N[C@@H](Cc2c[nH]c3ccccc23)C(=O)N[C@@H](CCN)C(=O)N[C@@H](Cc2cn(CC(=O)O)c3ccccc23)C(=O)N(C)[C@@H](CCCC)C(=O)N(C)[C@@H](CCCC)C(=O)N[C@@H](CC(C)C)C(=O)N1)C(=O)O) [INT-1300V],0.01 to 0.099
8,{CH2CO}-Y[NMeA]DPHK[Hyp]WKW[NMeNle][NMeNle]ECG[Pra″]([triazole″-PEG8′-Suc-vitamin E])G (thioether N-14; reading uncertain) [Example 14052],0.01 to 0.099
9,{CH2CO}-[Tyr(Me)][Pip]DP[Dap]Q[Hyp]W[Dab][Trp(1-CH2CO)][NMeNle][NMeNle]ECG[Pra″]([triazole-(S)‑18‑((3-azido-1-carboxypropyl)amino)‑18‑oxooctadecanoic acid]) (thioether N-14) [Example 14121],0.01 to 0.099

# Further lines, results first:
row,IC50 [µM],Binder
1,0.01 to 0.099,YADPHKPWKWXXECGXD (as m110 (INT 1400E); Pra triazole-linked to vitamin E succinate 5-azidopentylamide) [Example 14086]
2,0.01 to 0.099,{CH2CO}-Y[NMeA]DPHK[Hyp]WKW[NMeNle][NMeNle]ECG[Pra′]([triazole-X1])D (thioether N-14) [Example 14065]
3,0.01 to 0.099,{CH2CO}-Y[NMeA]DPHK[Hyp]WK[Trp(1-CH2CO)][NMeNle][NMeNle]ECG[Pra′]([triazole-X1])D (thioether N-14) [Example 14071]
4,0.01 to 0.099,"{CH2CO}-[F3Phe][NMeF][NMeNle][dHyp]DV[NMeF]D[dP]WYLCG[Pra] (thioether N-13; not fully specified (C-terminus); printed as ClAc-F3Phe-mPhe-mNle-dHyp-Asp-Val-mPhe-Asp-dPro-Trp-Tyr-Leu-Cys-Gly-[(S)-propargylglycine], also called Intermediate 1400L) [INT-1400L]"
5,0.01 to 0.099,{CH2CO}-Y[NMeA]NP[Dap]L[Hyp]W[Dab][Trp(1-CH2CO)][NMeNle][NMeNle]LCG[Pra] (thioether N-14; not fully specified; printed as ClAc-Tyr-[N-Me]Ala-Asn-Pro-Dap-Leu-Hyp-Trp-Dab-Trp(1-carboxymethyl)-[N-Me]Nle-[N-Me]Nle-Leu-Cys-Gly-[(S)-propargylglycine]) [INT-1300W]
6,0.01 to 0.099,{CH2CO}-[Phe(4-F)][Pip]DP[Dap]L[Hyp]W[Dab][Trp(1-CH2CO)][NMeNle][NMeNle]LCG[Pra″]([triazole-(S)‑18‑((3-azido-1-carboxypropyl)amino)‑18‑oxooctadecanoic acid]) (thioether N-14; also: residue 1 written Tyr(4-F)) [Example 14122]
7,0.01 to 0.099,{CH2CO}-Y[Pip]NP[Dap]L[Hyp]W[Dab][Trp(1-CH2CO)][NMeNle][NMeNle]LCG[Dab]([γGlu-C18 diacid]) (thioether N-14 (inferred)) [Example 13149]
8,0.01 to 0.099,{CH2CO}-Y[NMeA]NP[Dap]L[Hyp]WS[Trp(1-CH2CO)][NMeNle][NMeNle]ECG[Pra′]([triazole-X1]) (thioether N-14) [Example 14070]
9,0.01 to 0.099,{CH2CO}-[Phe(4-OMe)″][Pip]NPHL[Hyp]W[Dab][Trp(1-CH2CO)][NMeNle][NMeNle]LCG[Dab]([γGlu-C18 diacid]) (thioether N-14 (inferred)) [Example 13151]
10,0.01 to 0.099,{CH2CO}-Y[NMeA]NP[Dap]L[Hyp]W[Dab][Trp(1-CH2CO)][NMeNle][NMeNle]ECG[Pra]-OH (thioether N-14; SMILES C#CC[C@H](NC(=O)CNC(=O)[C@@H]1CSCC(=O)N[C@@H](Cc2ccc(O)cc2)C(=O)N(C)[C@@H](C)C(=O)N[C@@H](CC(N)=O)C(=O)N2CCC[C@H]2C(=O)N[C@@H](CN)C(=O)N[C@@H](CC(C)C)C(=O)N2C[C@H](O)C[C@H]2C(=O)N[C@@H](Cc2c[nH]c3ccccc23)C(=O)N[C@@H](CCN)C(=O)N[C@@H](Cc2cn(CC(=O)O)c3ccccc23)C(=O)N(C)[C@@H](CCCC)C(=O)N(C)[C@@H](CCCC)C(=O)N[C@@H](CCC(=O)O)C(=O)N1)C(=O)O) [INT-130AD]
11,0.01 to 0.099,{CH2CO}-Y[NMeA]DP[Dap]L[Hyp]W[Dab][Trp(1-CH2CO)][NMeNle][NMeNle]ECG[Pra]-OH (thioether N-14; SMILES C#CC[C@H](NC(=O)CNC(=O)[C@@H]1CSCC(=O)N[C@@H](Cc2ccc(O)cc2)C(=O)N(C)[C@@H](C)C(=O)N[C@@H](CC(=O)O)C(=O)N2CCC[C@H]2C(=O)N[C@@H](CN)C(=O)N[C@@H](CC(C)C)C(=O)N2C[C@H](O)C[C@H]2C(=O)N[C@@H](Cc2c[nH]c3ccccc23)C(=O)N[C@@H](CCN)C(=O)N[C@@H](Cc2cn(CC(=O)O)c3ccccc23)C(=O)N(C)[C@@H](CCCC)C(=O)N(C)[C@@H](CCCC)C(=O)N[C@@H](CCC(=O)O)C(=O)N1)C(=O)O) [INT-130AE]
12,0.01 to 0.099,"{CH2CO}-Y[NMeA]NP[Dap]L[Hyp]W[Dab][Trp(1-CH2CO)][NMeNle][NMeNle]LCGG[Pra]-OH (thioether N-14; SMILES C#CC[C@H](NC(=O)CNC(=O)CNC(=O)[C@@H]1CSCC(=O)N[C@@H](Cc2ccc(O)cc2)C(=O)N(C)[C@@H](C)C(=O)N[C@@H](CC(N)=O)C(=O)N2CCC[C@H]2C(=O)N[C@@H](CN)C(=O)N[C@@H](CC(C)C)C(=O)N2C[C@H](O)C[C@H]2C(=O)N[C@@H](Cc2c[nH]c3ccccc23)C(=O)N[C@@H](CCN)C(=O)N[C@@H](Cc2cn(CC(=O)O)c3ccccc23)C(=O)N(C)[C@@H](CCCC)C(=O)N(C)[C@@H](CCCC)C(=O)N[C@@H](CC(C)C)C(=O)N1)C(=O)O, also called Intermediate 130AA) [INT-130AA]"
